Assay results as given in the Human Domainome abundance scans (Beltran et al. 2025).
± gives the uncertainty stated by the source.

B1: Metastasis-associated protein MTA3, residues 265 to 317; numbered along this chain, Q9BTC8 (parent)
chain: RDEMEEWSASEASLFEEALEKYGKDFNDIRQDFLPWKSLTSIIEYYYMWKTTD
B2: POU domain, class 3, transcription factor 3, residues 320 to 388; numbered along this chain, P20264 (parent)
chain: DDLEQFAKQFKQRRIKLGFTQADVGLALGTLYGNVFSQTTICRFEALQLSFKNMCKLKPLLNKWLEEAD

Variants of: B1
Experiment: abundance fitness (aPCA) (normalised: wild type 0, dead -1); higher = more abundant; growth selection in yeast, the domain comes from the species named
Conditions: Homo sapiens

Abundance fitness of substitutions, site by site:
D53: I -0.566 ± 0.48 | R -0.164 ± 0.39 | T -0.41 ± 0.22 | A -0.135 ± 0.095 | G 0.066 ± 0.16 | P -0.044 ± 0.097 | Y -0.543 ± 0.36 | V -0.336 ± 0.092 | C 0.179 ± 0.29 | N 0.211 ± 0.3
T52: L -0.298 ± 0.094 | S -0.032 ± 0.071 | M -0.402 ± 0.13 | W -0.521 ± 0.23 | R 0.08 ± 0.069 | H -0.405 ± 0.2 | K 0.344 ± 0.1 | Y -0.428 ± 0.12 | G 0.001 ± 0.097 | C 0.191 ± 0.14 | N 0.2 ± 0.095 | P -0.055 ± 0.078 | D -0.251 ± 0.21 | I -0.292 ± 0.22 | F -0.51 ± 0.37 | A -0.097 ± 0.065 | V -0.097 ± 0.12
T51: Y 0.304 ± 0.12

Variants of: B2
Experiment: as above
Conditions: Homo sapiens

Abundance fitness, by site and new letter:
Q12: I -0.594 ± 0.48 | V -0.265 ± 0.085 | R -0.124 ± 0.064 | Y -0.176 ± 0.17 | K -0.276 ± 0.11 | E -0.044 ± 0.13 | G -0.636 ± 0.075 | M -0.409 ± 0.19 | D -0.23 ± 0.21 | L -0.201 ± 0.07 | W -0.146 ± 0.15 | P -0.694 ± 0.21 | C -0.438 ± 0.16 | F -0.654 ± 0.27 | S -0.143 ± 0.1 | T -0.283 ± 0.11 | A -0.1 ± 0.085
K8: E -0.019 ± 0.14 | Q -0.061 ± 0.099 | S -0.738 ± 0.23 | G -0.561 ± 0.14 | W -0.42 ± 0.19 | M -0.106 ± 0.14 | T -0.475 ± 0.24 | I 0.162 ± 0.33 | A 0.001 ± 0.11 | L 0.022 ± 0.07 | H -0.306 ± 0.21 | V -0.424 ± 0.11 | D -0.705 ± 0.48 | F -0.439 ± 0.33
K11: M -0.386 ± 0.15 | S -0.541 ± 0.14 | P -0.888 ± 0.29 | Q -0.106 ± 0.14 | W -0.753 ± 0.22 | T -0.39 ± 0.16 | A -0.298 ± 0.14 | L -0.944 ± 0.17 | R -0.087 ± 0.055 | V -0.856 ± 0.25 | G -0.926 ± 0.17
R14: F -0.829 ± 0.37 | V -0.751 ± 0.22 | S -0.813 ± 0.21 | T -0.939 ± 0.25 | M -0.954 ± 0.35 | Q -0.861 ± 0.28 | G -0.871 ± 0.25 | C -0.681 ± 0.23 | L -0.783 ± 0.08 | E -0.859 ± 0.23 | A -0.823 ± 0.2
F10: Q -0.698 ± 0.38 | W -0.636 ± 0.39 | K -0.365 ± 0.36 | Y -0.631 ± 0.36 | S -0.846 ± 0.28 | R -0.543 ± 0.16 | A -0.776 ± 0.24 | T -0.488 ± 0.17 | N -0.705 ± 0.48 | M -0.631 ± 0.33 | C -0.338 ± 0.25 | V -0.885 ± 0.2 | P -0.896 ± 0.25 | G -0.288 ± 0.12
A7: T -0.069 ± 0.24 | F -0.642 ± 0.2 | G -0.478 ± 0.11 | M -0.737 ± 0.19 | V -0.065 ± 0.068 | P -0.722 ± 0.32 | C -0.198 ± 0.065 | S 0.117 ± 0.11 | W -0.87 ± 0.31 | R -0.69 ± 0.15 | L -0.908 ± 0.36 | D -0.694 ± 0.27 | Q -0.703 ± 0.23 | I -0.057 ± 0.11
D2: I -0.238 ± 0.15 | M -0.252 ± 0.14 | W -0.111 ± 0.13 | Q -0.159 ± 0.13 | A 0.107 ± 0.16 | S -0.119 ± 0.3 | E -0.031 ± 0.049 | G -0.224 ± 0.081 | P -0.339 ± 0.23 | R -0.176 ± 0.089 | V -0.95 ± 0.5 | L -0.272 ± 0.14 | T 0.029 ± 0.13 | K 0.034 ± 0.12
Q9: A -0.241 ± 0.1 | L -0.223 ± 0.043 | M 0.128 ± 0.12 | W -0.2 ± 0.1 | I -0.425 ± 0.26 | K -0.046 ± 0.071 | T 0.029 ± 0.097 | G -0.205 ± 0.083 | R -0.222 ± 0.066 | E 0.042 ± 0.12 | C -0.457 ± 0.12 | Y 0.052 ± 0.12 | V -0.231 ± 0.081 | N 0.038 ± 0.12 | S -0.107 ± 0.082
D1: N 0.529 ± 0.33
L3: G -0.758 ± 0.18 | I -0.161 ± 0.27 | R -0.937 ± 0.19 | Y -0.242 ± 0.2 | F -0.454 ± 0.49 | Q -0.421 ± 0.38 | T -0.981 ± 0.33 | A -1 ± 0.32 | V -0.318 ± 0.11 | P -0.755 ± 0.24 | W -0.587 ± 0.17 | E -0.43 ± 0.31
R13: Y -0.651 ± 0.17 | W -0.697 ± 0.16 | H -0.263 ± 0.16 | S -0.582 ± 0.15 | I -0.771 ± 0.27 | N -0.698 ± 0.38 | M -0.578 ± 0.15 | A -0.385 ± 0.11 | E -0.311 ± 0.15 | Q -0.32 ± 0.098 | P -0.865 ± 0.21 | V -0.311 ± 0.099 | K -0.062 ± 0.086 | T -0.561 ± 0.18 | G -0.745 ± 0.18 | L -0.824 ± 0.16
